Measured values taken from ChEMBL document CHEMBL2074029, “Substrate specificities of rat oatp1 and ntcp: implications for hepatic organic anion uptake” (Am J Physiol Gastrointest Liver Physiol, 2003).

B1: Solute carrier organic anion transporter family member 1A1 (Rattus norvegicus) (protein)
chain: MEETEKKIATQEGRLFSKMKVFLLSLTCACLTKSLSGVYMNSMLTQIERQFDISTSVAGLINGSFEIGNLFFIVFVSYFGTKLHRPVVIGIGCVIMGLGCLLMSLPHFFMGRYEYETTISPTGNLSSNSFLCMENRTQTLKPTQDPAECVKEMKSLMWICVMVGNIIRGIGETPIVPLGISYIEDFAKSENSPLYIGILEMGKVAGPIFGLLLGSYCAQIYVDIGSVNTDDLTITPSDTRWVGAWWIGFLVCAGVNILTSIPFFFLPKALPKKGQQENVAVTKDGKVEKYGGQAREENLGITKDFLTFMKRLFCNPIYMLFILTSVLQVNGFINKFTFLPKYLEQQYGKSTAEAIFLIGVYSLPPICLGYLIGGFIMKKFKITVKKAAYLAFCLSVFEYLLFLCHFMLTCDNAAVAGLTTSYKGVQHQLHVESKVLADCNTRCSCSTNTWDPVCGDNGVAYMSACLAGCKKFVGTGTNMVFQDCSCIQSLGNSSAVLGLCKKGPECANRLQYFLILTIIISFIYSLTAIPGYMVFLRCVKSEEKSLGVGLHTFCIRVFAGIPAPVYFGALIDRTCLHWGTLKCGQRGACRMYDINSFRHIYLGLPIALRGSSYLPAFFILILMRKFQFPGDIDSSATDHTEMMLGEKESEHTDVHGSPQVENDGELKTKL
B2: Hepatic sodium/bile acid cotransporter (Rattus norvegicus) (protein)
chain: MEVHNVSAPFNFSLPPGFGHRATDKALSIILVLMLLLIMLSLGCTMEFSKIKAHLWKPKGVIVALVAQFGIMPLAAFLLGKIFHLSNIEALAILICGCSPGGNLSNLFTLAMKGDMNLSIVMTTCSSFSALGMMPLLLYVYSKGIYDGDLKDKVPYKGIMISLVIVLIPCTIGIVLKSKRPHYVPYILKGGMIITFLLSVAVTALSVINVGNSIMFVMTPHLLATSSLMPFSGFLMGYILSALFQLNPSCRRTISMETGFQNIQLCSTILNVTFPPEVIGPLFFFPLLYMIFQLAEGLLIIIIFRCYEKIKPPKDQTKITYKAAATEDATPAALEKGTHNGNIPPLQPGPSPNGLNSGQMAN

Legend:
Format in all cases: functional, cell-based
[1] = substrate: C[C@H](CCC(=O)O)[C@H]1CC[C@H]2[C@@H]3C[C@H](O)[C@@H]4C[C@H](O)CC[C@]4(C)[C@H]3CC[C@]12C; assay: (§1) TP_TRANSPORTER: uptake in Oatp1-expressing HeLa cells
[2] = substrate: C[C@H](CCC(=O)NCCS(=O)(=O)O)C1CC[C@H]2[C@@H]3C[C@H](O)[C@@H]4C[C@H](O)CC[C@]4(C)[C@H]3CC[C@]12C; assay: as §1
[3] = substrate: C[C@H](CCC(=O)NCCS(=O)(=O)O)[C@H]1CC[C@H]2[C@@H]3CC[C@@H]4C[C@H](O)CC[C@]4(C)[C@H]3C[C@H](O)[C@]12C; assay: as §1
[4] = substrate: C[C@H](CCC(=O)NCCS(=O)(=O)O)C1CC[C@H]2[C@@H]3C[C@H](O)[C@@H]4C[C@H](O)CC[C@]4(C)[C@H]3CC[C@]12C; assay: (§2) TP_TRANSPORTER: uptake in NTCP-expressing HeLa cells
[5] = substrate: C[C@H](CCC(=O)NCCS(=O)(=O)O)[C@H]1CC[C@H]2[C@@H]3CC[C@@H]4C[C@H](O)CC[C@]4(C)[C@H]3C[C@H](O)[C@]12C; assay: as §2
[6] = substrate: O=C1OC(c2ccc(O)c(S(=O)(=O)O)c2)(c2ccc(O)c(S(=O)(=O)O)c2)c2c(Br)c(Br)c(Br)c(Br)c21; assay: as §2

Row | Protein | Km [1] | Km [2] | Km [3] | Km [4] | Km [5] | Km [6]
1 | B1 | 17.5 µM | 3.3 µM | 3.5 µM | – | – | –
2 | B2 | – | – | – | 6.8 µM | 7.4 µM | 3.7 µM
